± gives the standard deviation of the averaged measurements.
Test system: ATP
Experiment: switch fluorescence ratio, 500 uM ATP over buffer (Cy3 cluster intensity, sum of 5 cycles each) (fold (ratio)); higher = stronger signal-on switching upon ATP binding; sequences stand for … in TCGTCGGCAGCGTCAGATGTGTATAAGAGACAGTTTTTTTTTTTTTTTTTTTTTTTTT…TC
Conditions: aptamer strand: ATP DNA aptamer (quencher-CACCTGGGGGAGTATTGCGGAGGAAGG + anchor), 100 nM annealed; ATP concentration: 500 uM
Summary of the method: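 Imaging in selection buffer was followed by imaging after 15 min with 500 uM ATP at 22 °C, for Cy3-labelled switching-strand clusters annealed to 100 nM quencher-labelled ATP aptamer on a modified Illumina MiSeq flow-cell. Five of these buffer/ATP cycles ran, separated by NaOH stripping and re-annealing. The fluorescence ratio per cluster is summed target-cycle over summed buffer-cycle Cy3 intensity, averaged per switch-domain sequence; clusters outside 100-1000 RFU were removed.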
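Further: ATP exposure 15 min at 22 °C before imaging.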

Row | Sequence | switch fluorescence ratio
1 | GATGGGTCTA | 0.966 ± 0.029
2 | GGTGGTCGAC | 1.03 ± 0.038
3 | AAGGATAGAT | 0.985 ± 0.025
4 | AATCGGCTGG | 1.01 ± 0.011
5 | AAAAAATGCT | 1.01 ± 0.014
6 | TAGGGATAGC | 0.985 ± 0.013
7 | ATAAGTGGA | 0.997 ± 0.062
8 | TTTTGAAACG | 0.995 ± 0.025
9 | TAGCTAGCGT | 1.01 ± 0.019
10 | CTTCATAGGG | 0.968 ± 0.024
11 | AAGTATAATG | 1.02 ± 0.054
12 | AAGTGACAGC | 1 ± 0.031
13 | TTTTTCGTAT | 1.04 ± 0.044
14 | GGGGTGGGTC | 0.974 ± 0.012
15 | AGATGGGTGG | 1.01 ± 0.025
16 | AAATGTGCTG | 1 ± 0.024
17 | ATTAGTGGGG | 0.978 ± 0.013
18 | CGTTAGGGCA | 0.979 ± 0.02
19 | GCAGCCGGGT | 0.991 ± 0.022
20 | GTGAGTATCG | 0.968 ± 0.0098
21 | AATTTCACGG | 1.03 ± 0.066
22 | TGTAGTTTAG | 1.01 ± 0.032
23 | ATGAGGTTAC | 0.988 ± 0.074

Row | Sequence | switch fluorescence ratio
24 | GGGAAGAGTA | 1 ± 0.031
25 | TTCTTTAATT | 0.963 ± 0.01
26 | GGCCTTAAGT | 0.9912 ± 0.0025
27 | CGGGGGGAAA | 1 ± 0.02
28 | TTTAAAACAG | 1.018 ± 0.0079
29 | TACAGGGCTG | 1.02 ± 0.057
30 | GTCGAGGAAT | 1.003 ± 0.0092
31 | GGCACACAGT | 1 ± 0.015
32 | ACATCCTTCG | 1.7 ± 0.25
33 | ATCAATGGCA | 0.975 ± 0.035
34 | TGGTAGGCGT | 0.987 ± 0.031
35 | CTGAGTATGG | 1.01 ± 0.0034
36 | GGTAATTGCG | 0.99 ± 0.022
37 | AATTACGATT | 1.04 ± 0.034
38 | GATGGGTATT | 0.968 ± 0.015
39 | ACTTTTGGCG | 1 ± 0.071
40 | TCCCCAATAA | 3.11 ± 0.39
41 | TTCTTAGCTT | 0.998 ± 0.019
42 | ACGGACAGTT | 1.13 ± 0.029
43 | GCGTGTAGAT | 1.04 ± 0.036
44 | ATAGGCCAG | 0.9898 ± 0.0067
45 | TTTTATTGGG | 0.975 ± 0.031
46 | ATTTAACTTA | 1.008 ± 0.0016

Row | Sequence | switch fluorescence ratio
47 | TAAGCTGGGG | 0.9861 ± 0.0052
48 | CCTGGGAAGA | 1.02 ± 0.017
49 | GGGGAATTCG | 1.02 ± 0.043
50 | CGTTCACCTG | 0.996 ± 0.038
51 | TATTGGGTGT | 1.034 ± 0.0014
52 | ATGGTGCAGG | 1.06 ± 0.011
53 | TCACAGTCTA | 1.04 ± 0.058
54 | TCGACGATTT | 1.23 ± 0.26
55 | AAATAGATCG | 1.05 ± 0.066
56 | GCAGGTTGT | 1.009 ± 0.0021
57 | GCCAGCGTCC | 1.62 ± 0.83
58 | TGAACAAGAT | 1.01 ± 0.022
59 | GGTTGGGATG | 0.951 ± 0.022
60 | GACCGGACAT | 0.996 ± 0.013
61 | TGGGTGGTCA | 0.987 ± 0.06
62 | ATCAGATTGG | 0.989 ± 0.0099
63 | AAACGGGCTA | 1.03 ± 0.039
64 | TGATAGGTCT | 0.986 ± 0.03
65 | GGGTATTGGG | 0.99 ± 0.021
66 | TTTGATTAAT | 0.987 ± 0.011
67 | ATACACGTTA | 1.23 ± 0.013
68 | ATCGGGTTGG | 0.965 ± 0.018
69 | ATCGTGCACA | 0.973 ± 0.036

Row | Sequence | switch fluorescence ratio
70 | TGAGAGCGTC | 0.89 ± 0.14
71 | TTGGTTTCGA | 0.98 ± 0.013
72 | AATGGGCGAG | 1.08 ± 0.18
73 | GAAGATTATA | 0.9865 ± 0.0044
74 | TTTTGATTGC | 1.03 ± 0.037
75 | TTTTGGCACG | 0.988 ± 0.0014
76 | CCATTCTAGA | 1.012 ± 0.0013
77 | TCGAGTATCG | 1.02 ± 0.044
78 | CCAATTTGGG | 0.964 ± 0.029
79 | TCATTATTAA | 1.01 ± 0.027
80 | GGGAGGGTTA | 0.996 ± 0.055
81 | CGTAGTAGTG | 0.993 ± 0.027
82 | TATGAGTAAG | 0.978 ± 0.027
83 | GGACCAAACG | 1.05 ± 0.024
84 | TTTGGGACAG | 0.981 ± 0.031
85 | AGCGGAACCC | 1.03 ± 0.023
86 | ACCTGTGATC | 1.02 ± 0.026
87 | CGGGCCTATT | 0.98938 ± 0.00074
88 | GACGTTTAAT | 1.021 ± 0.0057
89 | GAATTTCGGG | 0.996 ± 0.013
90 | GCCGCAGGTC | 1.23 ± 0.083
91 | GCTGGGTTGC | 1.01 ± 0.024
92 | ATCACATGAC | 1.19 ± 0.016

Row | Sequence | switch fluorescence ratio
93 | CGAGTTTTGC | 1.03 ± 0.026
94 | GGCTGGGGGG | 0.997 ± 0.02
95 | ATTAGTTGTA | 1 ± 0.025
96 | CTCACATGGG | 1.07 ± 0.028
97 | TGATTACTGG | 1.027 ± 0.01
98 | ACGGAAATTT | 1.021 ± 0.0052
99 | AAGTAATGCG | 1.04 ± 0.034
100 | GCTCAGGGGG | 1.03 ± 0.016
101 | TGGGCCGGGT | 1.03 ± 0.055
102 | TAAGGGTGGC | 1.04 ± 0.035
103 | TGAACGTTTT | 1.04 ± 0.029
104 | CGGGGGCGAA | 0.996 ± 0.05
105 | GATTTATAGG | 0.972 ± 0.052
106 | GGAAATAGTG | 0.966 ± 0.044
107 | CGCCTCGAGG | 0.9786 ± 0.0027
108 | AGGAGCGGTA | 1.1 ± 0.12
109 | AAAGAAGGTG | 1.06 ± 0.12
110 | TAAAGCAGGA | 0.993 ± 0.03
111 | GACAACGGAT | 1.02 ± 0.03
112 | TTGGGTGGTT | 0.9815 ± 0.0026
113 | GTCGAAAGGA | 0.9634 ± 0.0078
114 | CTAATTGCGG | 1.01 ± 0.013
115 | TACAGTGAAA | 1.05 ± 0.057

Row | Sequence | switch fluorescence ratio
116 | ACGGTACTGT | 1.4 ± 0.045
117 | GGGTGAAGGG | 0.974 ± 0.021
118 | CGGGTTCGCC | 0.981 ± 0.012
119 | AATGGGGGAA | 0.9881 ± 0.0087
120 | GACCCTAGAT | 1.008 ± 0.0036
121 | GATAGGTTGT | 1.02 ± 0.035
122 | TCAGGGGCGA | 1.041 ± 0.0078
123 | GTAACTGCAG | 0.993 ± 0.051
124 | GAGGGGGAGG | 0.982 ± 0.019
125 | GCGTCCGACT | 0.986 ± 0.06
126 | TATTCTAGAG | 0.989 ± 0.044
127 | GGGTGCCCAT | 1.03 ± 0.021
128 | CTGGGAGGAT | 0.98788 ± 0.0003
129 | ATTTAGCCGC | 1.02 ± 0.017
130 | GATTCATTAG | 0.9925 ± 0.0015
131 | AGCTTAGTTT | 0.975 ± 0.028
132 | TTGTGCTGGT | 1 ± 0.033
133 | CGTTTGTCTA | 1.01 ± 0.051
134 | AAAAGTTCTG | 1.01 ± 0.057
135 | TCATTATAAT | 1.006 ± 0.0062
136 | TGAAGCAGGG | 1.13 ± 0.018
137 | GTCATTTAAG | 0.991 ± 0.019
138 | GCTAGGTTTG | 0.998 ± 0.054

Row | Sequence | switch fluorescence ratio
139 | GTTGAATGGG | 0.977 ± 0.011
140 | ATAACGGGGA | 0.999 ± 0.015
141 | TTTTTCTTAT | 1 ± 0.041
142 | TCTTGTAATC | 1.07 ± 0.055
143 | ATTGTCTGAG | 1.01 ± 0.011
144 | GAATTTGTGG | 0.995 ± 0.037
145 | CGTTTAACAC | 0.997 ± 0.02
146 | ATTTGAGCGT | 1.02 ± 0.014
147 | CGTAGAATGC | 1.44 ± 0.082
148 | GATGGTAGCC | 0.9862 ± 0.0098
149 | ATCTAGAGGA | 0.985 ± 0.023
150 | CGGGGATGTT | 0.999 ± 0.035
151 | GTCGGGGAGG | 1.04 ± 0.031
152 | GGGAGCTGCG | 1 ± 0.018
153 | GAAGTGTCGG | 1.005 ± 0.0057
154 | GGGGCGGACG | 0.995 ± 0.047
155 | GACAGTCGGC | 0.9669 ± 0.0067
156 | ATGCTTCTGT | 0.964 ± 0.013
157 | GAGCATATCA | 1.006 ± 0.0028
